In patent US20140088006A1, “Stem Cell Mobilization and Tissue Repair and Regeneration” (Wellstat Therapeutics Corporation, priority 2011, published 2014):
Several values for one entry are separate records, joined by “and”; a condition that tells them apart may be missing. Equal entries are not always repeated.

What was measured:
[1] = system: white blood cells in peripheral blood; test: White blood cell count in peripheral blood after single subcutaneous injection; format: in vivo, C57Bl6 mice; details: s.c. 5 mg/kg; 1 hr; pooled blood
Method: (§1) C57Bl6 male mice, from 8 weeks to 4 month of age, from Harlan were used. Mice received subcutaneous injections of saline, Compound X (50 μg/kg) or Compound X (250 μg/kg). After 1 and 4 hours, mice were anesthetized and blood was collected through the orbital sinus with heparinized capillary tubes. 20 μl of blood was removed from each tube for WBC counts;
(§2) In this experiment, C57Bl6 mice received subcutaneous injections of PBS, Compound X (250 μg/kg) or AMD3100 (5 mg/kg). After 1 hr blood was collected through the orbital sinus with heparinized capillary tubes. Blood from each group was pooled, counted and mononuclear cells were isolated by density gradient separation. Cells were washed, counted and plated at 100,000 per dish (5 dishes/group) for CFU-GEMM and CFU-GM colonies. CFU-GEMM colonies were scored on day 14, while CFU-GM colonies on day 7 after plating in MC3434 (Stem cell Technology).

[2] = system: hematopoietic stem cells (HSC) and their hematopoietic progenitors (HPC); test: CFU-GM / CFU-GEMM colony assay of peripheral blood mononuclear cells after single subcutaneous injection; format: in vivo, C57Bl6 mice; details: s.c. 5 mg/kg
Method: as §1
Remaining blood from each group was pooled and mononuclear cells were isolated by density gradient separation. To enumerate HSC and HPC in peripheral blood cells were washed, counted plated in semi-solid Methylcellulose MC3434 (Stem cell technology) at 100,000 per dish (5 dishes/group) and placed in CO2 incubator at 37° C. Colony-forming unit-granulocyte erythroid macrophage megakaryocyte (CFU-GEMM) and Colony-forming unit-granulocyte macrophage (CFU-GM) were detected under inverted microscope 7 and 10 days after.
as §2

peripheral blood cells = test: FACS phenotype of peripheral blood cells after single subcutaneous injection; format: in vivo, C57Bl6 mice; details: for Phenotype Lin−/Sca-1+ / Phenotype Lin−/Sca-1−: 5 mg/kg, mononuclear cells
Method: C57Bl6 male mice, from 8 weeks to 4 month of age, from Harlan were used. […] 20 μl of blood was removed from each tube for WBC counts;
200 μl of blood was used for FACS analysis of cells phenotypes: briefly 50 μl of blood was transferred to a 15 ml polypropylene tube containing 1 ml ACK lysis buffer and the tubes left at room temperature for 6 minutes. 50 μl of a 1:50 dilution of Fc block (Pharmingen 01241A) along with 2 ul of anti-CD19FITC (Pharmingen 09654A) and 2 μl of anti-Gr-1PE (Pharmingen 01215A) was added and the tubes left at room temperature for 30 minutes protected from light. The cells were washed with 3 ml FACS buffer, resuspended in 300 μl FACS buffer and kept on ice, protected from light until acquired on the FACSCalibur.
For flow cytometry analysis the blood was stained with antibodies and a phenotype determined by FACS as described before. In addition to the whole blood FACS phenotyping, Ficolled blood was also stained to monitor the Lin−/Sca+ phenotype. The cells were washed with 3 ml FACS buffer, resuspended in 300 μl FACS buffer and kept on ice, protected from light until acquired on the FACSCalibur

[3] = system: human umbilical cord blood CD34+ cells; test: Transwell migration of CD34+ cells toward SDF-1α; format: cell-based; details: 10 μg/mL; control and Compound X treated cells; 100 ng/mL SDF-1α; 4 hours
Method: CD34^+ cell migration toward 100 ng/mL SDF-1α in a Corning Transwell device (24 well format, 5 μm pore size, polycarbonate membrane) was studied with and without Compound X and in the presence or absence of either anti-CXCR4 antibody or the CXCR4 antagonist AMD3100.
The CD34^+ population of cells from human umbilical cord blood was obtained from Lonza, defrosted and expanded ex vivo with cytokine cocktail for 6 days according to standard procedures. Briefly, 10 wells of two 12 well dishes were seeded at a density of 8×10^4 cells per well in 2 mL of CellGenix serum free growth medium (SCGM). Cells were allowed to expand in a 37° C. incubator (5% CO2, 86% RH) for 6 days. During the expansion, the 10 wells of one of the two plates received treatments of Compound X to a final concentration of 5 ng/mL (10 μL from freshly prepared 1 μg/mL stock in SCGM) at 24 hours and 72 hours after initiation of the culture.
3 hours prior to the start of the migration assay, both control and Compound X expanded cells were pulsed with either 0, 5 ng/mL or 5 μg/mL Compound X. Migration assay was performed according to the method described (Tavor et al. 2005). Cells were centrifuged for 5 minutes at 1100 RPM and resuspended at a density of 2×10^6 cells/mL in CellGenix SCGM serum free medium containing 1% Fraction V BSA either in the presence or absence of 5 ng/mL or 5 μg/mL Compound X for 3 hours. The feeder tray (bottom) was prepared with 600 μL of serum free SCGM supplemented with 1% BSA in the presence or absence of SDF-1α. All treatments were conducted in triplicate. The wells of the migration chamber (top) received 100 μL of cells from the 2×10^6 cells/mL suspensions, preincubated with 5 ng/mL or 5 μg/mL Compound X or Control. All treatments were conducted in triplicates. The plates were placed in a 37° C. incubator (5% CO2, 86% RH) and cells were allowed to migrate for 4 hours. […]
The cells were thawed at room temperature. […] 150 μL of the resulting cell lysates were transferred to a new 96 well plate and the fluorescence was read on a […] SpectraMax M2 fluorimeter (ex 485, em 538). […]

[4] = system: white blood cells in peripheral blood; test: White blood cell count after 4 daily injections of G-CSF and Compound X; format: in vivo, mice; details: 5 μg/mouse each agent s.c. daily for 4 days, pooled blood
Method: Compound X and Neupogen (rG-CSF Amgen, lot# P043601) were diluted in PBS. Mice received subcutaneous injections of PBS, Compound X (5 μg/mouse), G-CSF (5 μg/mouse) or Compound X (5 μg/mouse)+G-CSF (5 μg/mouse) for four consecutive days. On the last day of injections, 1 hour post injections, blood was collected through the orbital sinus with heparinized capillary tubes. Blood was pooled from 3 mice/group and white blood cell counts were obtained. Mononuclear cells were isolated by density gradient separation from pooled blood. Cells were washed, counted and plated at 100,000 per dish (5 dishes/group) for CFU-mix and CFU-GM colonies. Blood was also collected and processed on day 8 for colony assay. Results are shown in Tables 10, 11, and 12 and in FIG. 5.

HSC and HPC = test: CFU-GM / CFU-GEMM colony assay after 4 daily injections of G-CSF and Compound X; format: in vivo, mice; details: for CFU-GEMM numbers, MEAN / CFU-GM numbers, MEAN / CFU-GEMM numbers / CFU-GM numbers: 5 μg/mouse each agent s.c. daily for 4 days; for CFU-GEMM numbers / CFU-GM numbers: individual dishes; for Fold increase in number of CFU-GM / Fold increase in number of CFU-Mix (CFU-GEMM): multiple injections, 5 μg/mouse each agent
Method: Compound X and Neupogen (rG-CSF Amgen, lot# P043601) were diluted in PBS. Mice received subcutaneous injections of PBS, Compound X (5 μg/mouse), G-CSF (5 μg/mouse) or Compound X (5 μg/mouse)+G-CSF (5 μg/mouse) for four consecutive days. […] Mononuclear cells were isolated by density gradient separation from pooled blood. […] Blood was also collected and processed on day 8 for colony assay. Results are shown in Tables 10, 11, and 12 and in FIG. 5.

[5] = 1 hour, individual dishes, 5 mg/kg

## c1cc(CN2CCCNCCNCCCNCC2)ccc1CN1CCCNCCNCCCNCC1 [AMD3100, reference compound]
[1]
  White blood cell count: Cell Count: 1.14e+07 mL⁻¹
[2]; 1 hour
  CFU-GEMM, MEAN: 6.2 per 100,000 cells
  CFU-GM (day 7), MEAN: 20.6 per 100,000 cells
[2]; [5]
  CFU-GEMM: 5 per 100,000 cells and 4 per 100,000 cells (2×) and 11 per 100,000 cells and 7 per 100,000 cells
  CFU-GM (day 7): 19 per 100,000 cells (3×) and 26 per 100,000 cells and 20 per 100,000 cells
[2]; 1 hr
  number of circulating committed precursors of granulocytes and macrophages—CFU-GM: substantial increase
[2]; 1 hr, vs PBS
  increase of CFU-GEMM number in peripheral blood: 6.2 times
Peripheral blood cells; 1-hour
  Phenotype Lin−/Sca-1+: 0.6%
  Phenotype Lin−/Sca-1−: 2.8%
Peripheral blood cells; 30-min
  Phenotype Lin−/Sca-1+: 0.5%
  Phenotype Lin−/Sca-1−: 2.1%
Peripheral blood cells; s.c. 5 mg/kg, 30 min and 1 hr
  mobilization of lineage negative progenitors: up to 3 times
[3]
  CD34+ cell Transwell migration toward SDF-1α: strong inhibition

B1: G-CSF: Neupogen (rG-CSF Amgen), most common mobilizing agent for clinical uses (protein, chains of the INN, looked up)
chain: MTPLGPASSLPQSFLLKCLEQVRKIQGDGAALQEKLCATYKLCHPEELVLLGHSLGIPWAPLSSCPSQALQLAGCLSQLHSGLFLYQGLLQALEGISPELGPTLDTLQLDVADFATTIWQQMEELGMAPALQPTQGAMPAFASAFQRRAGGVLVASHLQSFLEVSYRVLRHLAQP
[4]; Day 4, 1 hour post injection
  White Blood Cell counts: Cell Count: 14.6 ×10^6
[4]; Day 8
  White Blood Cell counts: Cell Count: 5.0 ×10^6
HSC and HPC; Day 4
  CFU-GEMM numbers, MEAN: 17.6 per 100000 mononuclear cells
  CFU-GM numbers, MEAN: 60.6 per 100000 mononuclear cells
  CFU-GEMM numbers: 20 per 100000 mononuclear cells and 12 per 100000 mononuclear cells (2×) and 15 per 100000 mononuclear cells and 29 per 100000 mononuclear cells
  CFU-GM numbers: 62 per 100000 mononuclear cells and 58 per 100000 mononuclear cells and 63 per 100000 mononuclear cells and 52 per 100000 mononuclear cells and 68 per 100000 mononuclear cells
  Fold increase in number of CFU-GM: 12 Fold
HSC and HPC; Day 8
  CFU-GEMM numbers, MEAN: 4 per 100000 mononuclear cells
  CFU-GM numbers, MEAN: 15.0 per 100000 mononuclear cells
  CFU-GEMM numbers: 5 per 100000 mononuclear cells and 4 per 100000 mononuclear cells (3×) and 3 per 100000 mononuclear cells
  CFU-GM numbers: 12 per 100000 mononuclear cells and 15 per 100000 mononuclear cells and 11 per 100000 mononuclear cells and 21 per 100000 mononuclear cells and 16 per 100000 mononuclear cells
  Fold increase in number of CFU-GM: 6 Fold
  Fold increase in number of CFU-Mix (CFU-GEMM): 5 Fold
HSC and HPC; Day 4, 1 hr after the last injection
  Fold increase in number of CFU-Mix (CFU-GEMM): 12.5 Fold
